Measured values as given in article PMC5823874, “The structure of iPLA2β reveals dimeric active sites and suggests mechanisms of regulation and localization” (Nature Communications, 2018).
No end group written: not given here.

Molecular target: Calmodulin (CaM), unmodified (UniProt P0DP23 1-149)
Assay: fluorescence polarisation; synthetic FAM-labeled peptides of iPLA2β with CaM (Supplementary Figure 7h)
Conditions: both partners purified

Kd [µM]	Binder
5.9 ± 0.8	AWSEMVGIQYFR (also: FAM label (position not given here)) [Synthetic FAM-labeled peptide corresponding to the IQ motif of iPLA2β]
2.5 ± 0.4	RKGQGNKVKK (also: FAM label (position not given here)) [Synthetic FAM-labeled peptide corresponding to the 1-9-14 motif of iPLA2β]
